{
  "source": "patent US20090118184A1",
  "about": "(UNIVERSITY OF ROCHESTER, published 2009)",
  "binders": {"B1": {"name": "factor VIIIa A2 subunit, wild type (other)", "chain": "SVAKKHPKTWVHYIAAEEEDWDYAPLVLAPDDRSYKSQYLNNGPQRIGRKYKKVRFMAYTDETFKTREAIQHESGILGPLLYGEVGDTLLIIFKNQASRPYNIYPHGITDVRPLYSRRLPKGVKHLKDFPILPGEIFKYKWTVTVEDGPTKSDPRCLTRYYSSFVNMERDLASGLIGPLLICYKESVDQRGNQIMSDKRNVILFSVFDENRSWYLTENIQRFLPNPAGVQLEDPEFQASNIMHSINGYVFDSLQLSVCLHEVAYWYILSIGAQTDFLSVFFSGYTFKHKMVYEDTLTLFPFSGETVFMSMENPGLWILGCHNSDFRNRGMTALLKVSSCDKNTGDYYEDSYEDISAYLLSKNNAIEPR"}},
  "test_in_all_cases": "cell-based or functional assay",
  "key": {"[1]": {"molecular_target": "T1, factor VIIIa A1/A3C1C2 dimer, E1829A (human, UniProt P00451 20-391; P00451 1709-2351)", "T1 sequence 1": "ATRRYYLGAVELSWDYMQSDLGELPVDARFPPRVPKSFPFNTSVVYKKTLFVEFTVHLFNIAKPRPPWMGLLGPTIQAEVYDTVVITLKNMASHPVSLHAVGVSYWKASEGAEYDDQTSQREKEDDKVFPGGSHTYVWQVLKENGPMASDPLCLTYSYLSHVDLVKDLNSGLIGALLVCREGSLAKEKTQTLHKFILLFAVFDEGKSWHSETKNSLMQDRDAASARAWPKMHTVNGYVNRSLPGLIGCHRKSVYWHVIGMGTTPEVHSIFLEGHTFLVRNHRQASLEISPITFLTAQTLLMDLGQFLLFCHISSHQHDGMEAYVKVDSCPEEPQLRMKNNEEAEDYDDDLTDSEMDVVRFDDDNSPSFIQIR", "T1 sequence 2": "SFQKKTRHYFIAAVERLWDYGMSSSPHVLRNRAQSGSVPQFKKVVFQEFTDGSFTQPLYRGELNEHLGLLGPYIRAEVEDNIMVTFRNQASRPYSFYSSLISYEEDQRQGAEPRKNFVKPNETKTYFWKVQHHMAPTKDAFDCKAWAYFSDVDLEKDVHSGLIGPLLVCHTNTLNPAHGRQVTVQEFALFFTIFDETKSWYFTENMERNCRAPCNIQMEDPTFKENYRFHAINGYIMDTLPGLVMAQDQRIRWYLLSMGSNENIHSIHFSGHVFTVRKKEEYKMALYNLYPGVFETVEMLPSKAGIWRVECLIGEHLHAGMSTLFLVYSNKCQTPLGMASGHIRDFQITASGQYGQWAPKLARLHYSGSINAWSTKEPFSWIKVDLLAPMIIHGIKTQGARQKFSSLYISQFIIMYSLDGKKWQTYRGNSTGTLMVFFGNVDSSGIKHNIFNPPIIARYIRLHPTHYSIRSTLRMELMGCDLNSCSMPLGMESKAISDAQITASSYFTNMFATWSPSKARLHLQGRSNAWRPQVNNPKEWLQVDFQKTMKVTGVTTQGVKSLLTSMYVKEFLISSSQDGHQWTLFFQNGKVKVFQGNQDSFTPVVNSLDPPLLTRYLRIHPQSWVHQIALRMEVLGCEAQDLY"}, "[2]": {"molecular_target": "T2, factor VIIIa A1/A3C1C2 dimer, N1950A (human, UniProt P00451 20-391; P00451 1709-2351)", "T2 sequence 1": "T1 sequence 1", "T2 sequence 2": "T1 sequence 2 with A140E, N261A"}, "[3]": {"molecular_target": "T3, factor VIIIa A1/A3C1C2 dimer, Q1820A (human, UniProt P00451 20-391; P00451 1709-2351)", "T3 sequence 1": "T1 sequence 1", "T3 sequence 2": "T1 sequence 2 with Q131A, A140E"}},
  "note": "Substitutions are numbered along the chain they refer to.",
  "data": [
    {"binder": "B1", "values": [
      {"measurement": "rate of factor VIIIa decay compared with WT, factor IXa present", "setting": "[1]", "result": 5, "unit": "fold"},
      {"measurement": "Factor VIIIa decay rate relative to wild type, FIXa (+)", "setting": "[2]", "result": "1.73 relative to wild type"},
      {"measurement": "Factor VIIIa decay rate, FIXa (+)", "setting": "[2]", "result": 0.0195, "unit": "min⁻¹"},
      {"measurement": "Factor VIIIa decay rate relative to wild type, FIXa (+)", "setting": "[3]", "result": "1.01 relative to wild type"},
      {"measurement": "Factor VIIIa decay rate, FIXa (+)", "setting": "[3]", "result": 0.0114, "unit": "min⁻¹"}
    ]}
  ]
}
